# Experimental data published in patent US9993566B2, “SEZ6 modulators and methods of use” (AbbVie Stemcentrx LLC, priority 2013, dated 2018).
# B1: SC17.24: murine anti-SEZ6 antibody; duplicate sequence of SC17.2 (antibody, V domains shown)
# VH: QVQLQQSDAELVKPGASVKISCKVSGYTFTDHTIHWMKQRPEQGLEWIGYIYPRDGSTKYNEEFKGKATLTADKSSSTAYMQLNSLTSEDSAVYFCARSYSNYFDYWGQGTTLTVSS
# VL: DIVMSQSPSSLAVSVGEKVTMSCKSSQSLLYSSNQKSYLAWYQQKPGQSPKLLIYWASTRESGVPDRFTGSGSGTDFTLTISSVQAEDLAVYYCKQSYNLRTFGGGTKLEIK
# modifications: Murine SC17.2 VH; Murine SC17.2 VL
# B2: SC17.24-ADC2: SC17.24 antibody conjugated to PBD dimer cytotoxic agent (and linker) ADC2 (conjugate)
# VL: DIVMSQSPSSLAVSVGEKVTMSCKSSQSLLYSSNQKSYLAWYQQKPGQSPKLLIYWASTRESGVPDRFTGSGSGTDFTLTISSVQAEDLAVYYCKQSYNLRTFGGGTKLEIK
# VH: QVQLQQSDAELVKPGASVKISCKVSGYTFTDHTIHWMKQRPEQGLEWIGYIYPRDGSTKYNEEFKGKATLTADKSSSTAYMQLNSLTSEDSAVYFCARSYSNYFDYWGQGTTLTVSS
# B3: SC17.28-ADC2: SC17.28 antibody conjugated to PBD dimer cytotoxic agent (and linker) ADC2 (conjugate)
# VL: DILLTQSPAILSVSPGEGVSFSCRASQSIGTSIHWYQQRTNGSPRLLIKYASESISGIPSRFSGSGSGTDFTLRINSLESEDIADYYCQQSNSWPLTFGAGTKLELK
# VH: QVHLPQSRPELVKPGASVKISCKASGYGFTRSYIHWVKQRPGQGLEWIGYISSGSGGTTYNQKFKGKASLTADNPSSTAYMHLSSLTSEDSAIYFCARGGVRYFDVWGAGTTVTVSS
# B4: SC17.34: murine anti-SEZ6 antibody (antibody, V domains shown)
# VH: EVQLQQSGPELVKPGSSVKISCKASGYTFTDYNMDWVKQSHGKRLEWIGYIYPDNGGAGYNQKFKGKATLTVDKSSSTAYMELRSLTSEDSAVYYCSRSITTAWFAYWGQGTLVTVSA
# VL: DIKMTQSPSSMYASLGERVTITCKASQDINSYLSWFQQKPGKSPKTLIYRANRLVDGVPSRFSGSGSGQDYSLTISSLEYEDMGIYYCLQYDEFPPTFGGGTKLEIK
# modifications: Murine SC17.34 VH; Murine SC17.34 VL
# notes: murine anti-SEZ6 antibody
# B5: SC17.34-ADC2: SC17.34 antibody conjugated to PBD dimer cytotoxic agent (and linker) ADC2 (conjugate)
# VL: DIKMTQSPSSMYASLGERVTITCKASQDINSYLSWFQQKPGKSPKTLIYRANRLVDGVPSRFSGSGSGQDYSLTISSLEYEDMGIYYCLQYDEFPPTFGGGTKLEIK
# VH: EVQLQQSGPELVKPGSSVKISCKASGYTFTDYNMDWVKQSHGKRLEWIGYIYPDNGGAGYNQKFKGKATLTVDKSSSTAYMELRSLTSEDSAVYYCSRSITTAWFAYWGQGTLVTVSA
# B6: SC17.19: murine anti-SEZ6 antibody (antibody, V domains shown)
# VH: DVQLQESGPGLVKPSQSLSVTCTVTGYSITSSYTWNWIRQFPGNKLEWMGYIHYSGSTNYNPSLRSRISITRDTSKNQFFLQLNSVTTEDTATYYCARSRYYYDAYGFAYWGQGTLVTVSA
# VL: DIVLTQSPASLAVSLGQRAAISCKPSQSVDYDGDSYMNWYQQKPGQPPKLLIYAASNLESGIPARFSGSGSGTDFTLNIHPVEEEDAATYYCHQINDDPWTFGGGTKLK
# modifications: Murine SC17.19 VH; Murine SC17.19 VL
# notes: murine anti-SEZ6 antibody
# Key:
# SEZ6 ECD = target: T1, SEZ6 ECD (Homo sapiens, UniProt Q53EL9); assay: Fine epitope mapping (phage display peptide library or yeast-displayed SEZ6 ECD mutants); assay type: binding; details: epitope conformational (discontinuous) or linear
# T1 construct: SEZ6 extracellular domain (amino acids 1-904); expressed in transfected cells; host or cells: yeast (surface display, Cochran et al. protocol)
# Experimental: Epitopes were classified either as conformational (i.e. discontinuous) or linear. Yeast displaying the SEZ6 ECD construct was heat treated for 30 minutes at 80° C. in order to denature the antigen, washed twice in ice-cold PBSA and then subjected to the same staining protocol and flow cytometry analysis as described above. Antibodies that bound to both the denatured and native yeast were classified as binding to a linear epitope, whereas antibodies that bound native yeast but not denatured yeast were classified as conformationally specific.
# Fine epitope mapping was further performed on selected antibodies to determine the specific amino acids to which they bound. Antibodies that bound to a linear epitope were mapped using the Ph.D.-12 phage display peptide library kit (New England Biolabs E8110S). The antibody selected for epitope mapping was coated onto a Nunc MaxiSorp tube (Nunc) at 50 μg/mL in 3 mL 0.1 M sodium bicarbonate solution, pH 8 and incubated overnight. The tube was blocked with 3% BSA solution in bicarbonate solution. Then, 10^11 input phage in PBS+0.1% Tween-20 was allowed to bind, followed by ten consecutive washes with 0.1% Tween-20 to wash away non-binding phage. Remaining phage were eluted with 1 mL 0.2 M glycine for 10 minutes at room temperature with gentle agitation, followed by neutralization with 150 μL 1 M Tris-HCl pH 9. Eluted phage were amplified and panned again with 10^11 input phage, using 0.5% Tween-20 during the wash steps to increase selection stringency. DNA from 24 plaques of the eluted phage from the second round was isolated using the Qiaprep M13 Spin kit (Qiagen) and sequenced. Binding of clonal phage was confirmed using an ELISA assay, where the mapped antibody or a control antibody was coated onto an ELISA plate, blocked, and exposed to each clone phage. Phage binding was detected using horseradish peroxidase conjugated anti-M13 antibody (GE Healthcare), and the 1-Step Turbo TMB ELISA solution (Pierce). Phage peptide sequences from specifically binding phage were aligned using Vector NTI (Life Technologies) against the antigen ECD peptide sequence to determine the epitope of binding.
# Selected antibodies that bound to a discontinuous epitope were mapped using the technique described by Chao et al. (2007). Libraries of SEZ6 ECD mutants were generated with error prone PCR using nucleotide analogues 8-oxo-2′deoxyguanosine-5′-triphosphate and 2′-deoxy-p-nucleoside-5′triphosphate (both from TriLink Bio) for a target mutagenesis rate of one amino acid mutation per clone. These were transformed into a yeast display format. Using the technique described above for domain-level mapping, the library was stained for c-myc and antibody binding at 50 nM. […] These clones were re-grown, and subjected to another round of FACS sorting for loss of binding to the target antibody. Using the Zymoprep Yeast Plasmid Miniprep kit (Zymo Research), individual ECD clones were isolated and sequenced. Where necessary, mutations were reformatted as single-mutant ECD clones using the Quikchange site directed mutagenesis kit (Agilent).
# Individual ECD clones were next screened to determine whether loss of binding was due to a mutation in the epitope, or a mutation that caused misfolding. Mutations that involved cysteine, proline, and stop codons were automatically discarded due to the high likelihood of a misfolding mutation. Remaining ECD clones were then screened for binding to a non-competing, conformationally specific antibody. ECD clones that lost binding to non-competing, conformationally specific antibodies were concluded to contain misfolding mutations, whereas ECD clones that retained equivalent binding as wild type SEZ6 ECD were concluded to be properly folded. Mutations in the ECD clones in the latter group were concluded to be in the epitope. […]
# mouse SEZ6 = target: T2, mouse SEZ6 (Mus musculus, UniProt Q7TSK2); assay: Flow cytometry cross reactivity, Neuro2a cells; assay type: binding; details: 5 μg/mL antibody
# T2 construct: Neuro2a (ATCC Cat # CCL131), and RIN-m5F (ATCC cat # CRL-11605) cell lines which express mouse SEZ6 and rat SEZ6; host or cells: Neuro2a
# Experimental: (§1) In this regard flow cytometry was performed using a FACSCanto II as per the manufacturer's instructions in order to confirm that selected SC17 antibody modulators can immunospecifically associate with human SEZ6 and to determine whether the same modulators cross-react with cynomolgus, rat and/or murine SEZ6 in addition to SEZ6L and SEZ6L2. More particularly modulators were tested for cross reactivity to murine SEZ6 and rat SEZ6 by flow cytometry against Neuro2a (ATCC Cat # CCL131), and RIN-m5F (ATCC cat # CRL-11605) cell lines which express mouse SEZ6 and rat SEZ6, respectively. For examining cross reactivity to cynomolgus SEZ6, yeast displaying the extracellular domain of cynomolgus SEZ6 (Boder et al, 1997) were used for flow cytometry analysis.
# (§2) Briefly 1×10^5 cells per well of Neuro2a, RIN-5mF, or yeast displaying cynomolgus SEZ6 cells were incubated for 30 minutes with 50 μL PBS (2% FCS) buffer with 5 μg/mL antibody. Cells were washed twice with the same buffer and then incubated with 50 μL per sample DyLight 649 labeled goat-anti-mouse IgG, Fc fragment specific secondary diluted 1:200 in PBS buffer. After incubating for 15 minutes cells were washed twice with the PBS buffer and re-suspended in the same with DAPI for flow cytometry analysis of Neuro2a and Rin-m5F or buffer without DAPI for flow cytometric analysis of yeast cells with cSEZ6.
# cynomolgus SEZ6 = assay: Flow cytometry cross reactivity, yeast displaying extracellular domain of cynomolgus SEZ6; assay type: binding; details: 5 μg/mL antibody
# Experimental: as §1, §2
# LU64, a SCLC tumor = assay: ADC cytotoxicity in NTX tumor cells in vitro; assay type: cell-based, human; details: compared to control msIgG1
# Experimental: (§3) NTX tumors were dissociated into a single cell suspension and plated on Primaria™ plates (BD Biosciences) in growth factor supplemented serum free media as is known in the art. After culturing the cells for one day at 37° C./5% CO2/5% O2, they were treated with a control (IgG1, IgG2a or IgG2b) or a murine SEZ6 modulator and Fab-saporin as described in Example 14. After seven days, the modulator-mediated saporin cytotoxicity was assessed by quantifying the remaining number of live cells using Cell Titer Glo.
# (§4) Mouse lineage-depleted NTX tumor cells were exposed to anti-SEZ6 ADCs or a mouse isotype control (msIgG1) using the same method as described in Example 15, except that Fab-saporin was not added.
# [1] = test system: OV26, a NET ovarian tumor; assay: ADC cytotoxicity in NTX tumor cells in vitro; assay type: cell-based, human; details: compared to control msIgG1
# Experimental: as §3, §4
# LU100, a SCLC tumor = assay: Fab-saporin cytotoxicity in NTX tumor cells; assay type: cell-based, human; details: 50 and 500 pM antibody with Fab-saporin, seven days
# Experimental: To corroborate the results of Example 14 and determine whether SEZ6 modulators can mediate toxin internalization and cell killing of human tumor cells (as opposed to engineered cells), mouse lineage-depleted NTX cells were plated and subsequently exposed to anti-SEZ6 antibodies and Fab-saporin.
# as §3
# rat SEZ6 = assay: Flow cytometry cross reactivity, RIN-m5F cells; assay type: binding; details: 5 μg/mL antibody
# Experimental: as §1, §2
# SEZ6L2 = target: T3, SEZ6L2 (Homo sapiens, UniProt Q6UXD5, INS830AYEELLDNRKLEV); assay: ELISA cross reactivity to family member SEZ6L2; assay type: binding; parameters: key to binds SEZ6 family member SEZ6L2 (dagger): *: antibodies that bind SEZ6 family members SEZ6L and SEZ6L2 are designated with an asterisk and/or a dagger, respectively; †: antibodies that bind SEZ6 family members SEZ6L and SEZ6L2 are designated with an asterisk and/or a dagger, respectively
# T3 construct: IgK signal peptide (N, cleaved yes); made in house; host or cells: HEK-293T or CHO-S
# Experimental: To determine cross reactivity to family member proteins, SEZ6L and SEZ6L2, an ELISA-based assay was used. Plates were coated with SEZ6, SEZ6L, or SEZ6L2 proteins at 0.2 μg/mL in PBS overnight. After washing with PBS containing 0.05% (v/v) Tween 20 (PBST), the wells were blocked with 2% (w/v) BSA in PBS (PBSA), 100 μL/well for 1 hour at room temperature. Antibody was then added at 1 μg/mL in 100 μL PBSA for 1 hour at room temperature. After washing with PBST, 100 μL/well HRP-labeled goat anti-mouse IgG diluted 1:2,000 in PBSA for 1 hour at room temperature. The plates were washed and 100 μL/well of the TMB substrate solution (Thermo Scientific 34028) was added for 15 minutes at room temperature. After developing, an equal volume of 2M H2SO4 was added to stop substrate development and analyzed by spectrophotometer at OD 450. […] As discussed above, such pan-SEZ6 antibodies are compatible with the teachings herein and may be used in conjunction with the disclosed methods.
# T3 sequence (Q6UXD5 with tags, fused parts or gaps with the stated changes): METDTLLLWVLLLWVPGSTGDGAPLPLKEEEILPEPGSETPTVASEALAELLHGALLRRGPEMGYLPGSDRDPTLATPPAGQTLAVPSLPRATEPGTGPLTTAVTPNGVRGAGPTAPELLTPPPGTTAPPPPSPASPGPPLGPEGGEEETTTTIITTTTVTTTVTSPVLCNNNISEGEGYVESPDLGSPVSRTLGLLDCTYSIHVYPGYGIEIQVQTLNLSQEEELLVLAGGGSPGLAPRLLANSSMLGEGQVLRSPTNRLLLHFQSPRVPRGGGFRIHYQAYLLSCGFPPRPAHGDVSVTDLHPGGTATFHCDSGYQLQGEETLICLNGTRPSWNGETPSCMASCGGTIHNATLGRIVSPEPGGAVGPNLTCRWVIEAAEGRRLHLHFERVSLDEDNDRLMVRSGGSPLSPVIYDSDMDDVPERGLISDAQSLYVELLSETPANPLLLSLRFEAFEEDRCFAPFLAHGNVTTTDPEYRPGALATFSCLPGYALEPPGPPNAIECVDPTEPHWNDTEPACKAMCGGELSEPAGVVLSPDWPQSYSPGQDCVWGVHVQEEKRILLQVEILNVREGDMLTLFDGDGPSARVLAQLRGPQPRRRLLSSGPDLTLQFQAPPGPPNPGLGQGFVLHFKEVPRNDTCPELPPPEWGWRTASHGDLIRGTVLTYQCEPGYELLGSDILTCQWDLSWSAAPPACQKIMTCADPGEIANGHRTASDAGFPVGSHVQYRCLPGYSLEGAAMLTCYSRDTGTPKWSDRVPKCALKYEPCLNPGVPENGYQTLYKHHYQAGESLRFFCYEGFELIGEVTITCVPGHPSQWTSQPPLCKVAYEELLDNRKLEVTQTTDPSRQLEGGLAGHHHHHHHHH
# Chain of rat SEZ6 (as listed by the source): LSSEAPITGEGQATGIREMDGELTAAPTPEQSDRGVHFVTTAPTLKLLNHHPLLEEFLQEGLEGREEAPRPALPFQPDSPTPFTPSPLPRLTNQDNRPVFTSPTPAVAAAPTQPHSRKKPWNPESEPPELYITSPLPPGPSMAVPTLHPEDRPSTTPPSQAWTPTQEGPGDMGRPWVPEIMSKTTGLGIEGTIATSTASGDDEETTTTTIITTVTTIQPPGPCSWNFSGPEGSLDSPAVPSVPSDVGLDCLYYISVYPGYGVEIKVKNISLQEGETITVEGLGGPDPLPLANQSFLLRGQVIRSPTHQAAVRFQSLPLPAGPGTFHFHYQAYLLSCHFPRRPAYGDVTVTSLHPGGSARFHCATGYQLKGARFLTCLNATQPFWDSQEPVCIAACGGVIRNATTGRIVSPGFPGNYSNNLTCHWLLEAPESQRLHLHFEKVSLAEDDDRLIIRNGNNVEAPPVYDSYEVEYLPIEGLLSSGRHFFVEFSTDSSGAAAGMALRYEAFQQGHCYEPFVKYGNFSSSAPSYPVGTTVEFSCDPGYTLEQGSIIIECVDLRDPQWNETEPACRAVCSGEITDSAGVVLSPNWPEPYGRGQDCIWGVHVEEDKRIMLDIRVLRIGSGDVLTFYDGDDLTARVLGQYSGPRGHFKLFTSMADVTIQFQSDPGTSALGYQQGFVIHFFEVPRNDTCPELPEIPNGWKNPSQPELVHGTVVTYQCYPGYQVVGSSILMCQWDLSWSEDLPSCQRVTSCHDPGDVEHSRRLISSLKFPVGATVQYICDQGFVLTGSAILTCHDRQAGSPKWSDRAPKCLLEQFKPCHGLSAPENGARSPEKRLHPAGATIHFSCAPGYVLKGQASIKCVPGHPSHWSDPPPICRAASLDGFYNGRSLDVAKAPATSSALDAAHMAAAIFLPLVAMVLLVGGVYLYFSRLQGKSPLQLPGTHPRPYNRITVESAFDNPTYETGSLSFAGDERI
# T1 sequence (Q53EL9 20-923): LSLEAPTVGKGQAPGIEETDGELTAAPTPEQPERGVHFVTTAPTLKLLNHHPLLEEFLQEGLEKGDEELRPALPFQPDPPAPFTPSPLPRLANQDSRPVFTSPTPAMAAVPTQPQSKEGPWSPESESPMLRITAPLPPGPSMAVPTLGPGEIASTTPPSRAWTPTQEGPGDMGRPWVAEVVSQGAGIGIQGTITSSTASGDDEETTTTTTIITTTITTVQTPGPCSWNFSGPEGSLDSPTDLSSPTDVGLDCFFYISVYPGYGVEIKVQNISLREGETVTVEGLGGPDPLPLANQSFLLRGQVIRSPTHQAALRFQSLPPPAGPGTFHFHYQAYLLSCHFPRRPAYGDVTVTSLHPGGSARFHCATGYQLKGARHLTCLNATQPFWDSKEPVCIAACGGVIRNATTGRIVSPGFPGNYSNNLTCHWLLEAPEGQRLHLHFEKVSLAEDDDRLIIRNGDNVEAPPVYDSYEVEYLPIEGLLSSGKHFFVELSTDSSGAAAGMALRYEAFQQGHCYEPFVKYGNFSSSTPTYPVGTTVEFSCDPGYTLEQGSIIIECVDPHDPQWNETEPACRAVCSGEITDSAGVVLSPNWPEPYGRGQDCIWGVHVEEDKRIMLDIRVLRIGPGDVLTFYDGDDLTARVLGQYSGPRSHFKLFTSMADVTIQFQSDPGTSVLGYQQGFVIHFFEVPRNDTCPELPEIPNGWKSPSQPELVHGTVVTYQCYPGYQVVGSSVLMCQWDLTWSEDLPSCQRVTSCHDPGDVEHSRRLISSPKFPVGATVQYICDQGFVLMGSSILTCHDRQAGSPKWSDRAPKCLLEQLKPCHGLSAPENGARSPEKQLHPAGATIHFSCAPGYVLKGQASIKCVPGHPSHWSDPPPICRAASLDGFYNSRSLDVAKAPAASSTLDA
# T2 sequence (Q7TSK2 20-991): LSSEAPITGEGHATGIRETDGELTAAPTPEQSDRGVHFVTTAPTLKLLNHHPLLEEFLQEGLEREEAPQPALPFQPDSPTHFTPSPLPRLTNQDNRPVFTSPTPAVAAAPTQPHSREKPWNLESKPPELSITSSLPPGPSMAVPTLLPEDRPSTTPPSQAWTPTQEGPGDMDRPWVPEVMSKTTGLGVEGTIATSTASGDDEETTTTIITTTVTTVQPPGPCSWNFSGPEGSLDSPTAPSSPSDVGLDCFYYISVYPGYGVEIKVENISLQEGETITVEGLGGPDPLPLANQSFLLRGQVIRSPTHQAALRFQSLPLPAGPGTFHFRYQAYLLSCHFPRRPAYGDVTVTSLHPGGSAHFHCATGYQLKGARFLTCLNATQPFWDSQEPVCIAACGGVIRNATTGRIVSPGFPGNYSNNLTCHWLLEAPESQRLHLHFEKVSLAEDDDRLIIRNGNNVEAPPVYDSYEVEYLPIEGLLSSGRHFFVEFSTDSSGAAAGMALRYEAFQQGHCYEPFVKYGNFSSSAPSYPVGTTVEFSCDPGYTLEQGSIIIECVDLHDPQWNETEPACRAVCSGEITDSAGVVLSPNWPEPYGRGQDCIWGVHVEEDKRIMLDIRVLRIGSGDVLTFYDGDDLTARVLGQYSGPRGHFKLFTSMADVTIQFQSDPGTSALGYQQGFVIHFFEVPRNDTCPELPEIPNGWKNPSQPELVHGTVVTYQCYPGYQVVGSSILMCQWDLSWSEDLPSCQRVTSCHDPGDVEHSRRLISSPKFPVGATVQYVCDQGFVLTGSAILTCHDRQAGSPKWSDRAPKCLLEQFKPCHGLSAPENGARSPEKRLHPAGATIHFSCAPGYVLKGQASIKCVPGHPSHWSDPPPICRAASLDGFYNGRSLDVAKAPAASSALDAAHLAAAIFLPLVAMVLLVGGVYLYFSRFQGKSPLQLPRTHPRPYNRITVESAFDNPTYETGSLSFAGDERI
Molecule,Discontinuous (SEZ6 ECD),cross reactivity to murine SEZ6 (mouse SEZ6),cross reactivity to cynomolgus SEZ6 (cynomolgus SEZ6),"percent viable cells, LU64 (LU64, a SCLC tumor)","percent viable cells, OV26 [1]","number of tumor cells, LU100 (LU100, a SCLC tumor)",cross reactivity to rat SEZ6 (rat SEZ6),further results
B1,No,cross reactive,cross reactive,–,–,–,–,–
B2,–,–,–,increased reduction in percent viable cells,increased reduction in percent viable cells,–,–,–
B3,–,–,–,increased reduction in percent viable cells,increased reduction in percent viable cells,–,–,–
B4,Yes,–,cross reactive,–,–,reduction of tumor cells,cross reactive,–
B5,–,–,–,increased reduction in percent viable cells,increased reduction in percent viable cells,–,–,–
B6,–,cross reactive,–,–,–,reduction of tumor cells,cross reactive,"cross reactivity with SEZ6L2 (SEZ6L2; ELISA, antibody 1 μg/mL): cross-reactive; binds SEZ6 family member SEZ6L2 (dagger) (SEZ6L2; mark in Table 5): SC17.SC17, SC17.19^†, SC17.93, SC17.102, SC17.121,"
